Results reported in patent US10072252B2 (priority 2013, dated 2018).
Positions count from the first letter of the chain named. Numbers in names are those of the source. Where “and” joins values, the source holds several entries; their conditions need not be identical. Equal values may be shown once.

Columns and labels:
[1] = tested on: CCCCCCCC(=O)CC(=O)N[C@H]1CCOC1=O; test: purified protein, by the assay type; details: pH 8.3; 25.0 °C
[2] = tested on: CCCCCCCCCC(=O)CC(=O)N[C@H]1CCOC1=O; test: purified protein, by the assay type; details: pH 8.3; 25.0 °C
[3] = target: T1, Sulfolobus solfataricus SsoPox variant W263L, SEQ ID NO: 11 (Saccharolobus solfataricus, UniProt Q97VT7, W263L); type: biochemical
T1 construct: made in house; host or cells: E. coli BL21(DE3)-pGro7/GroEL

[4] = target: T2, Sulfolobus solfataricus SsoPox variant αsA1 (C258L/I261F/W263A), SEQ ID NO: 21 (Saccharolobus solfataricus, UniProt Q97VT7, C258L/I261F/W263A); type: biochemical; details: for Catalytic activity: pH 8
T2 construct: made in house; host or cells: E. coli BL21(DE3)-pGro7/GroEL
T2 sequence (Q97VT7 1-314 C258L/I261F/W263A): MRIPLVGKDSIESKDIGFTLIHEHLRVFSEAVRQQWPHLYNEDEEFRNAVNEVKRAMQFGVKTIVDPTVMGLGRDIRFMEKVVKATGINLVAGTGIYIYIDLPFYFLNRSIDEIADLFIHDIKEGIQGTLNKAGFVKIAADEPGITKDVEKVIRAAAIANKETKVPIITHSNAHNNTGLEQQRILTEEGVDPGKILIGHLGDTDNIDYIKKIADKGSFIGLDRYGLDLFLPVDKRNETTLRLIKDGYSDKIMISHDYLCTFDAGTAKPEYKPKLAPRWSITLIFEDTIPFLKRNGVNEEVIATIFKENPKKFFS

[5] = target: T3, Sulfolobus solfataricus SsoPox, wild type (wt), SEQ ID NO: 3 (Saccharolobus solfataricus, UniProt Q97VT7); set-up: made in house; host or cells: E. coli BL21(DE3)-pGro7/GroEL; details: pH 8; cited from earlier work
[6] = tested on: CCCCCCC1CCCC(=O)O1; test: purified protein, by the assay type; details: pH 8.3; 25.0 °C
[7] = target: T4, Sulfolobus solfataricus SsoPox variant W263M, SEQ ID NO: 9 (Saccharolobus solfataricus, UniProt Q97VT7, W263M); type: biochemical
T4 construct: made in house; host or cells: E. coli BL21(DE3)-pGro7/GroEL

[8] = target: T1, Sulfolobus solfataricus SsoPox variant W263L, SEQ ID NO: 11; type: biochemical; remark: listed apart in the source
[9] = target: T3, Sulfolobus solfataricus SsoPox, wild type (wt), SEQ ID NO: 3
[10] = target: Sulfolobus solfataricus SsoPox variant W263F (of SEQ ID NO: 3) (Saccharolobus solfataricus, UniProt Q97VT7, W263F)
[11] = target: Sulfolobus solfataricus SsoPox variant W263I, SEQ ID NO: 15 (Saccharolobus solfataricus, UniProt Q97VT7, W263I)
[12] = target: Sulfolobus solfataricus SsoPox variant W263V, SEQ ID NO: 17 (Saccharolobus solfataricus, UniProt Q97VT7, W263V)
[13] = target: Sulfolobus solfataricus SsoPox variant W263T, SEQ ID NO: 19 (Saccharolobus solfataricus, UniProt Q97VT7, W263T)
[14] = tested on: 3-oxo-C12 AHL; type: cell-based, Pseudomonas aeruginosa
[15] = type: physicochemical; details: pH 8

Sulfolobus solfataricus SsoPox variant W263V, SEQ ID NO: 17 (Saccharolobus solfataricus P2; W263V)
Km [1]: 1346 ± 298 µM | kcat [1]: 0.19 ± 0.009 s⁻¹ | kcat/Km [1]: 141 ± 32 M⁻¹ s⁻¹ | Km [2]: 24.7 ± 5.2 µM | kcat [2]: 4.82 ± 0.11 s⁻¹ | kcat/Km [2]: 195000 ± 44000 M⁻¹ s⁻¹

COP(=O)(OC)Oc1ccc([N+](=O)[O-])cc1 [Methyl-paraoxon, methyl-paraoxon]
catalytic efficiency improvement induced by SDS [3]: 5.3 times | kcat/KM [3]: 3.16(±0.10) × 10^4 M^−1s^−1 and 1.69(±0.04) × 10^5 M^−1s^−1 | Catalytic activity [4]: 2.29(±1.09) · 10^4 M^−1s^−1 | Catalytic activity [5]: 1.27(±0.7) · 10^3 M^−1s^−1

Sulfolobus solfataricus SsoPox variant W263F (of SEQ ID NO: 3) (Saccharolobus solfataricus P2; W263F)
Km [6]: 135.2 ± 52.8 µM | kcat [6]: 66.5 ± 3.2 s⁻¹ | kcat/Km [6]: 492000 ± 193000 M⁻¹ s⁻¹ | Km [1]: 288 ± 56 µM | kcat [1]: 3.96 ± 0.18 s⁻¹ | kcat/Km [1]: 13800 ± 2800 M⁻¹ s⁻¹ | Km [2]: 146 ± 33 µM | kcat [2]: 0.66 ± 0.03 s⁻¹ | kcat/Km [2]: 4520 ± 1040 M⁻¹ s⁻¹

Sulfolobus solfataricus SsoPox variant W263A, SEQ ID NO: 13 (Saccharolobus solfataricus P2; W263A)
Km [2]: 1640 ± 170 µM

Sulfolobus solfataricus SsoPox, wild type (wt), SEQ ID NO: 3 (Saccharolobus solfataricus P2)
Km [6]: 94 ± 18 µM | kcat [6]: 7.38 ± 0.28 s⁻¹ | kcat/Km [6]: 78600 ± 15300 M⁻¹ s⁻¹ | Km [1]: 143 ± 15 µM | kcat [1]: 4.52 ± 0.1 s⁻¹ | kcat/Km [1]: 31600 ± 4000 M⁻¹ s⁻¹ | Km [2]: 335 ± 10.4 µM and 456 ± 128 µM

COP(=S)(OC)Oc1ccc([N+](=O)[O-])cc1 [Methyl-parathion, methyl-parathion]
Km [3]: 168 ± 31 µM | kcat [3]: 1.22(±0.13) × 10^−1 s^−1 | kcat/KM [3]: 728 ± 156 M⁻¹ s⁻¹ | Catalytic activity [4]: 3.68(±0.5) · 10^1 M^−1s^−1 | Catalytic activity [5]: 9.09 ± 0.9 M⁻¹ s⁻¹

CCCCCCCC(=O)CC(=O)N[C@H]1CCOC1=O [3-oxo-C10 AHL]
Enhancement/wt [7]: 0 | Enhancement/wt [8]: 0 | Enhancement/wt [9]: 1 | kcat/KM [9]: 3.16(±0.40)×10^4 M^−1s^−1 | times better substrate / higher catalytic efficiency [9]: 10 times | Enhancement/wt [10]: 4.4(±1.0) × 10^−1

CCOC(=O)CC(SP(=S)(OC)OC)C(=O)OCC (centres unmarked) [Malathion, malathion]
Catalytic activity [4]: 3.2 ± 0.7 M⁻¹ s⁻¹ | Catalytic activity [5]: 5.56 ± 1.26 M⁻¹ s⁻¹

CCOP(=S)(OCC)Oc1ccc([N+](=O)[O-])cc1 [Ethyl-Parathion, ethyl-parathion]
Catalytic activity (very low hydrolysis) [4]: VLH

CCCCCCCC1CCC(=O)O1 (centres unmarked) [Undecanoic-γ-lactone, undecanoic-γ-lactone]
Enhancement/wt [7]: 5.4 ± 1.3 | Enhancement/wt [8]: 4.4 ± 1.1 | Enhancement/wt [9]: 1 | kcat/KM [9]: 2.36 (±0.38)×10^3 M^−1s^−1 | Enhancement/wt [10]: 5.3 ± 1.8 | Enhancement/wt [11]: 2.3 ± 0.5 | Enhancement/wt [12]: 1.4 ± 0.4 | Enhancement/wt [13]: 147.9 ± 53.5

Sulfolobus solfataricus SsoPox variant W263T, SEQ ID NO: 19 (Saccharolobus solfataricus P2; W263T)
Km [1]: 1000 ± 343 µM | kcat [1]: 0.107 ± 0.016 s⁻¹ | kcat/Km [1]: 106 ± 40 M⁻¹ s⁻¹ | Km [2]: 137 ± 19 µM | kcat [2]: 10.4 ± 0.35 s⁻¹ | kcat/Km [2]: 75600 ± 10800 M⁻¹ s⁻¹

CCCCCCC1CCCC(=O)O1 (centres unmarked) [Undecanoic-δ-lactone, undecanoic-δ-lactone]
Enhancement/wt [7]: 5.6 ± 2.0 | Enhancement/wt [8]: 3.3 ± 1.2 | Enhancement/wt [9]: 1 | kcat/KM [9]: 6.72(±2.54)×10^4 M^−1s^−1 | times better substrate / higher catalytic efficiency [9]: 10 times | Enhancement/wt [10]: 6.3 ± 2.7 | Enhancement/wt [11]: >73.8 ± 17.2 | kcat ([11]; pH 8.3): (5.80 ± 0.74) × 10^1 s^−1 | kcat/KM ([11]; pH 8.3): >5.80(±0.74) × 10^6 M^−1s^−1 | Enhancement/wt [12]: 10.1 ± 3.6 | Enhancement/wt [13]: 9.1 ± 3.5

Sulfolobus solfataricus SsoPox variant W263I, SEQ ID NO: 15 (Saccharolobus solfataricus P2; W263I)
Km [1]: 1605 ± 443 µM | kcat [1]: 0.6 ± 0.09 s⁻¹ | kcat/Km [1]: 374 ± 117 M⁻¹ s⁻¹ | Km [2]: 17.8 ± 4.87 µM and 17.8 ± 4.9 µM | kcat [2]: 2.89 s⁻¹ and 2.89 ± 0.08 s⁻¹

B1: SsoPox W263A: SEQ ID NO: 3 with substitution of tryptophan W in position 263 by alanine A (protein, listed as Sulfolobus solfataricus)
chain: T2 sequence (Q97VT7 1-314 C258L/I261F/W263A) with L258C, F261I
relative lactonase activity in screening (3-oxo-C12 AHL hydrolysis) [14]: selected for a potential lactonase activity improvement

B2: SsoPox W263T: SEQ ID NO: 3 with substitution of tryptophan W in position 263 by threonine T (protein, listed as Sulfolobus solfataricus)
chain: T2 sequence (Q97VT7 1-314 C258L/I261F/W263A) with L258C, F261I, A263T
relative lactonase activity in screening (3-oxo-C12 AHL hydrolysis) [14]: selected for a potential lactonase activity improvement | melting temperature [15]: 89.2±0.4 °C

B3: SsoPox W263V: SEQ ID NO: 3 with substitution of tryptophan W in position 263 by valine V (protein, listed as Sulfolobus solfataricus)
chain: T2 sequence (Q97VT7 1-314 C258L/I261F/W263A) with L258C, F261I, A263V
relative lactonase activity in screening (3-oxo-C12 AHL hydrolysis) [14]: selected for a potential lactonase activity improvement | melting temperature [15]: 84.1±1.6 °C

B4: SsoPox wt: wild-type hyperthermophilic PTE of Sulfolobus solfataricus, sequence SEQ ID NO: 3 (protein, listed as Sulfolobus solfataricus)
chain: T2 sequence (Q97VT7 1-314 C258L/I261F/W263A) with L258C, F261I, A263W
melting temperature [15]: 104 °C

B5: SsoPox W263F: SsoPox (SEQ ID NO: 3) with W263F variation (protein, listed as Sulfolobus solfataricus)
chain: T2 sequence (Q97VT7 1-314 C258L/I261F/W263A) with L258C, F261I, A263F
melting temperature [15]: 91.8±1.7 °C

B6: SsoPox W263M: SEQ ID NO: 3 with substitution of tryptophan W in position 263 by methionine M (protein, listed as Sulfolobus solfataricus)
chain: T2 sequence (Q97VT7 1-314 C258L/I261F/W263A) with L258C, F261I, A263M
melting temperature [15]: 85.3±0.9 °C

B7: SsoPox W263L: SEQ ID NO: 3 with substitution of tryptophan W in position 263 by leucine L (protein, listed as Sulfolobus solfataricus)
chain: T2 sequence (Q97VT7 1-314 C258L/I261F/W263A) with L258C, F261I, A263L
melting temperature [15]: 92.0±2.1 °C
